# Assay results published in the supplement of paper PMC9170038.
# System: K4 kissing-loop RNA reporter
# Experiment: apparent KD of K4 kissing-loop reporter; higher = weaker reporter binding
# Conditions: Eterna round: R107
# Method: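 RNA-MaP round R107: designed RNA switches with theophylline, tryptophan, arginine or FMN aptamers are transcribed on-chip within common flanks. They are titrated with a labelled K4 kissing-loop RNA reporter in RNA-MaP buffer (100 mM Tris pH 7.5, 80 mM KCl, 4 mM MgCl2), without ligand or with the indicated ligand. Median apparent KD per design.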
# [1] = input ligand: theophylline 20 uM
# [2] = input ligand: tryptophan 2.4 mM
# 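Note: bound reporter read as fluorescence of individual clusters on recovered sequencing chips by microscopy, with normalized cluster intensities fitted with a binding model.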
Sequence,apparent KD of K4 kissing-loop reporter (input ligand: FMN 200 uM) [nM],apparent KD of K4 kissing-loop reporter (input ligand: arginine 13.2 mM) [nM],apparent KD of K4 kissing-loop reporter (input ligand: none) [nM],apparent KD of K4 kissing-loop reporter [1] [nM],apparent KD of K4 kissing-loop reporter [2] [nM]
GCGGCCCAGACGGAUACCAGUGACCCGCUGGGAACCGCGGGCCCAGAGUGAUGUUCGGGACACCCUUGGCAGCCGCCUGGGUCGC [#2 Same State - Theophylline B Attempt #19 (HarryS)],732,293,491,606,448
GCGUCCAUGUAUGAUACCAGACUUUUUUUAGUAGGUGACGAUAGUGAUGUUAUACGUCAAGUCCCUUGGCAGCAUGACCUAUUAU [theeternabot_exclusion_KL_Theo_B_23],423,461,418,694,587
GCGUCGCAGGUCGCAGUACCAUCGCGGGAUACCAGCCCUGCUACCGGCCCUUGGCAGCCCGGUUAUCGGUUAGUGAUGUUAGCCA [theeternabot_sameState_KL_Theo_A_44],642,531,739,621,591
GCUACCUAGGCAGGAUAUCGUAUUGAGUGAUGUUCAAUAACGGUCUACCAAAGGUAGACCGACCUUCGAGAAGGGCCUAGGUAGC,143,163,193,174,166
GCUACUGCUGAAGGAUAUAUCAAUAGAGUGAUGUUCUAUGUCGGUAGCCCGAAAGGGCUACCGACGGUAGAAGGUCAGCAGUAGC,182,1090,1560,1120,960
GCUAGCAUGGCAGGAUAUAGCUAUAGGAGUGAUGUUCCUUGGUAGGUGAGUGAUGUUCACUACCAACUAGAAGGGCCAUGCUAGC,148,116,125,121,135
GCUAGUGCCCGCUCGAAAGAGCGUGUGUGUAAGGAUAUCUAGUAAUAGAGAAGGUACGGAGUGAUGUUCCCACACGGGCACUAGC,705,600,800,779,1060
GCUAUGGUAGGAAGGAGCGCGGACGAUAUUUAUCGAGUGAUGUUCGAUUCAUUAAUUUGAACGCAGGUAGGUCGCCUACUAUAGC [Arginine B K4 29],138,148,160,134,161
GCUAUGGUAGGAAGGAGCGCUAAUUUAUUUUUACGAGUGAUGUUCGGUAGUAGAUUGUUAAAGCAGGUAGGUCGCCUACUAUAGC [Arginine B K4 17],103,124,106,85.7,92.5
GCUAUGGUAGGAAGGAGCGCUACUUUAUUUUUACGAGUGAUGUUCGGUAGUAGAGUGUUAAAGCAGGUAGGUCGCCUACUAUAGC [Arginine B K4 18],217,132,140,172,146
GCUAUGGUAGGAAGGAGCGCUUAAUUAUUAAUAAGAGUGAUGUUCGAUAAUAAAUAUUUAUAGCAGGUAGGUCGCCUACUAUAGC [KL-SSArg B22],155,168,174,243,104
GCUAUGGUAGGAAGGAGCGCUUAUUUAUUAAUAAGAGUGAUGUUCGAUAAUAAAUAUUUAUAGCAGGUAGGUCGCCUACUAUAGC [Arginine B K4 1],225,219,232,227,204
GCUAUGGUAGGAAGGAGCGCUUAUUUAUUAAUAAGAGUGAUGUUCGAUAAUAGAUAUUUAUAGCAGGUAGGUCGCCUACUAUAGC [Arginine B K4 11],290,278,293,321,165
GCUAUGGUUGGAAGGAGCGUUGGGUUACUAAUAAGAGUGAUGUUCGAUAGUAGGUAAUUGUAGCAGGUAGGUCGCCAACUAUAGC [KL-Arg B26],290,304,329,234,211
GCUAUGGUUGGAAGGAGCGUUUAAUUACUAAUAAGAGUGAUGUUCGAUAGUAGGUAAUUGUAGCAGGUAGGUCGCCAACUAUAGC [KL-Arg B25],215,232,186,222,224
GCUGAUCGUUUUCCACGAUGCGGCUAAUAAAAGGAUAUUGGUAUAUCAAGAAGGUUUGUUCUGUGUAGUGAUGUUGCACCGUGUU [theeternabot_sameState_KL_FMN_A_28],77.5,101,80.5,111,72.5
GCUUUCCGUGCGGCCGCCACUGAUCUAAGUGAUGUUUAGAUCGCAUUCGAACCGGUUACCCAGAGCAGGACCGGGCACCAGCGCU [theeternabot_exclusion_KL_Trp_B_35],97,84.9,89.8,90.1,91.9
GGACGAGUGAUGUUCGUUAUUAUGCAUUCAGAGGAUAUAGGAUUAGCUAGAAGGCUGAAUCAAUCUUCGAGUGAUGUUCGAGGAU [Same State FMN A GF 10],146,146,154,151,142
GGACGCCGGUCGGCCGCCACUCACAGCAGUGAUGUUGCUGAGCUUGUAGCGGAGUGAUGUUCCGAGAGGACCGGGACUGCAGUUU [Same State Tryptophan B GF 10],522,506,739,550,532
GGAGCAGGUGAAGGAUAUCCCGGGCCAGAGUGAUGUUCUGGAUCCCUUGCCGUGUCUAAACGGGUGGGAGAAGGUCACUGAUAAG [Erinxe],137,187,213,178,231
GGAGGGAUCUCGGCCGCCACUCAUAAGAAAUGGGCCUCAGAAAUAUAGUGAUGUUAUAUAAAGAAGAGGACCGGGAGAAAGAAGG [ExTryptoB.D],197,128,129,203,131

Sequence,apparent KD of K4 kissing-loop reporter (input ligand: FMN 200 uM) [nM],apparent KD of K4 kissing-loop reporter (input ligand: arginine 13.2 mM) [nM],apparent KD of K4 kissing-loop reporter (input ligand: none) [nM],apparent KD of K4 kissing-loop reporter [1] [nM],apparent KD of K4 kissing-loop reporter [2] [nM]
GGAGUUACCUGGGAUACCAGUCGGAGUCCGAGAGCUCGGAGUGAUGUUCUGGGAUGUUUCGGCCCUUGGCAGCUCUGGGACUCCC [#2 Exclusion - Theophylline B Attempt #10 (HarryS)],220,181,241,249,198
GGAUAGGACAGAGGAUAUCCAGUGAUGUUGGAGAAUUCUCCUUAAACAUGUCACAAAAGUGGCAUGGGAGAAGGCUGUCCUAUCG [Mod of Eli's FmnBX 29 v1],217,123,122,138,105
GGAUAGGACAGAGGAUAUCUCUGAGGCAAGAAAACUUGUCUCUAAAGGGAUGACUCAGUGAUGUUGAGAGAAGGCUGUCCUAUCG [FmnBX 11 - #SwitchBubble #StaticStem],295,141,154,140,149
GGAUAGGACAGAGGAUAUGGAGAGUCUACAAAGUAGGCUCAUAAUCCUUGAAUGGAAGUGAUGUUUCUAGAAGGCUGUCCUAUCG [FmnBX 18 - #SwitchBubble #StaticStem #Palindromic],758,135,143,148,136
GGAUAGGACAGAGGAUAUGGAGCUAGGCAAGAAUAACUUGUCUAGCAAUCCAUGAGGAGUGAUGUUCCAGAAGGCUGUCCUAUCG [FmnBX 2 - #SwitchBubble #StraticStem #DoubleMagnetSystem],825,156,155,163,116
GGAUAGGACAGAGGAUAUGGUAGUGAUGUUACCAAACUGGUUACUCUUGUCAGAAAACUGGCAUCUCUAGAAGGCUGUCCUAUCG [KL-XFMN-B9],389,156,149,144,168
GGAUAGGACAGAGGAUAUGGUAGUGAUGUUACCAAACUGGUUAUCAAUGUUAGAAAAUUGACAAAUCCAGAAGGCUGUCCUAUCG [KL-XFMN-B14],198,60.7,66.4,54.8,62
GGAUAGGACAGAGGAUAUGGUGCUAGGCAAGAAUAACUUGUCUAGCAAUCCAUGAGGAGUGAUGUUCCAGAAGGCUGUCCUAUCG [FmnBX 3 - #SwitchBubble #StraticStem #DoubleMagnetSystem],440,132,137,136,118
GGAUAGGACAUAGGAUAUGGUAGUGAUGUUACCAAACUGGUUAAACAUGUCAGAAAACUGGCAUGACCAGAAGGGUGUCCUAUCG [FmnBX 27 U11+G75],73,54.2,61.8,45.9,64.3
GGAUAGGAUAGAGGAUAUGGAUUAGGCAAGAAUAACUUGUCAUGUAAAUCCAUGAGGAGUGAUGUUCCAGAAGGCUGUCCUAUCG [MatMod 7 - Jieux - Exclusion - FMN B],349,116,114,112,90.7
GGAUAGGAUAGAGGAUAUGGGCUAGGCAAGAAUAACUUGUCUAGUAAAUCCAUGAGGAGUGAUGUUCCAGAAGGCUGUCCUAUCG [MatMod 2 - Jieux - Exclusion - FMN B],286,166,324,182,247
GGAUAGGAUAGAGGAUAUGGGCUAGGCAAGGAUAACUUGUCUAGCAAAUCCAUGAGGAGUGAUGUUCCAGAAGGCUGUCCUAUCG [MatMod 1 - Jieux - Exclusion - FMN B],733,160,162,148,158
GGAUAGGAUAGAGGAUAUGGUAUAUGCAAGAAUAACUUAUCGUGUAAAUCCAUAGGGAGUGAUGUUCCAGAAGGCUGUCCUAUCG [MatMod 11 - Jieux - Exclusion - FMN B],921,244,308,324,229
GGAUCCACCAGUGAUGUUGGAGAAAACUUCAAGGAUAUGACGAAAGUCAGAAGGUGGUAGACUGGACAAAGUCCGGUAGGAUCCA [FmnA10 U29+A78],604,395,490,570,528
GGAUCCUAGGCGGCCGCCACUCCAUCGUACCGAAAGGUAUGAUACCGAGUGAUGUUCGGUUGGAGGAGGACCGGGCCUAGGAUCC [#2 Exclusion - Tryptophan B Attempt #3 (HarryS)],147,112,124,127,112
GGAUUCGGCACGGCCGCCACUUCCGGUGGCUGGUGUCAUGGUGCGCGUGAGUGAUGUUUAUGUGGGAGGACCGGGUGUUGAGUCC [whbob_Ex_Tryp_B_w44],1020,433,834,1000,502
GGCACGGGCUCGGCCGCCACUCCCGCGGGUCGUAAGGUCCGCUACUGAGUGAUGUUCGGUUGGAGGAGGACCGGGAGCCCGUGCC [#2 Exclusion - Tryptophan B Attempt #20 (HarryS)],149,220,143,145,119
GGCAGAGCGCGAAGGAGCGCCCUGACAGGUUGCUGCCGUGGGCAGUGAUGUUGCUCAGUCCGGCAGGUAGGUCGCGUGCUCUGCC,167,115,225,116,148
GGCAGUGAUGUUGCCAGUGGCGGAUGCGAAGGAGCGCGGUGAGACGCAGGUAGGUCGCGCAUUGAAAUUGCUGUCACUAGGAUGC [whbob_Ex_Arginine_A_2t129],272,262,267,313,212
GGCAGUGAUGUUGCCUAAGCAACGCAUGCAGAGGAUAUUCGUUCGGGAAGAAGGCUGCAGCGUUCUCUCGUCAGUGAUGUUGGCG [Same State FMN A GF 24],140,115,127,130,114
GGCAUGGUGGCGCGGCUGCCAUGCGCUUGGGAGGAUAUGUUUCGUGACAGAAGGCCCAGUGAUGUUGGGUCUGUUCAAAAGGACU [Onrabe],447,149,133,137,113
